Experimental data reported in patent publication US20110318339A1.
Each block holds one substance with its values, some of them ahead of it.

Experiments:
[1] = molecular target: rHuman IGF-1 sR, (IGF-1 sR), CF (Cat# 391-GR) (human) (UniProt P08069); experiment: Multispot ECL; Fab 17.5 nM
[2] = molecular target: rHuman CD44/Fc Chimera, CF (Cat# 3660-CD) (human) (UniProt P16070); experiment: Multispot ECL; Fab 17.5 nM
[3] = molecular target: rHuman P-Cadherin/Fc Chimera, CF (Cat# 861-PC) (human) (UniProt P22223); experiment: Multispot ECL; Fab 17.5 nM
[4] = molecular target: rHuman Notch-1/Fc Chimera, CF (Cat# 3647-TK) (human) (UniProt P46531); experiment: Multispot ECL; Fab 17.5 nM
[5] = molecular target: rHuman ErbB2/Fc Chimera, CF (Cat# 1129-ER) (human) (UniProt P04626); experiment: Multispot ECL; Fab 17.5 nM
[6] = molecular target: rHuman IGF-1 sR, (IGF-1 sR), CF (Cat# 391-GR) (human) (UniProt P08069); experiment: Multispot ECL; Fab 4.375 nM
[7] = molecular target: rHuman CD44/Fc Chimera, CF (Cat# 3660-CD) (human) (UniProt P16070); experiment: Multispot ECL; Fab 4.375 nM
[8] = molecular target: rHuman P-Cadherin/Fc Chimera, CF (Cat# 861-PC) (human) (UniProt P22223); experiment: Multispot ECL; Fab 4.375 nM
[9] = molecular target: rHuman Notch-1/Fc Chimera, CF (Cat# 3647-TK) (human) (UniProt P46531); experiment: Multispot ECL; Fab 4.375 nM
[10] = molecular target: rHuman ErbB2/Fc Chimera, CF (Cat# 1129-ER) (human) (UniProt P04626); experiment: Multispot ECL; Fab 4.375 nM
[11] = molecular target: rHuman IGF-1 sR, (IGF-1 sR), CF (Cat# 391-GR) (human) (UniProt P08069); experiment: Multispot ECL; Fab 280 nM
[12] = molecular target: rHuman CD44/Fc Chimera, CF (Cat# 3660-CD) (human) (UniProt P16070); experiment: Multispot ECL; Fab 280 nM
[13] = molecular target: rHuman P-Cadherin/Fc Chimera, CF (Cat# 861-PC) (human) (UniProt P22223); experiment: Multispot ECL; Fab 280 nM
[14] = molecular target: rHuman Notch-1/Fc Chimera, CF (Cat# 3647-TK) (human) (UniProt P46531); experiment: Multispot ECL; Fab 280 nM
[15] = molecular target: rHuman ErbB2/Fc Chimera, CF (Cat# 1129-ER) (human) (UniProt P04626); experiment: Multispot ECL; Fab 280 nM
[16] = molecular target: rHuman IGF-1 sR, (IGF-1 sR), CF (Cat# 391-GR) (human) (UniProt P08069); experiment: Multispot ECL; Fab 70 nM
[17] = molecular target: rHuman CD44/Fc Chimera, CF (Cat# 3660-CD) (human) (UniProt P16070); experiment: Multispot ECL; Fab 70 nM
[18] = molecular target: rHuman P-Cadherin/Fc Chimera, CF (Cat# 861-PC) (human) (UniProt P22223); experiment: Multispot ECL; Fab 70 nM
[19] = molecular target: rHuman Notch-1/Fc Chimera, CF (Cat# 3647-TK) (human) (UniProt P46531); experiment: Multispot ECL; Fab 70 nM
[20] = molecular target: rHuman ErbB2/Fc Chimera, CF (Cat# 1129-ER) (human) (UniProt P04626); experiment: Multispot ECL; Fab 70 nM
[21] = molecular target: rHuman P-Cadherin/Fc Chimera, CF (Cat# 861-PC) (human) (UniProt P22223); experiment: Multispot ECL; Fab 58.1 nM
[22] = molecular target: rHuman EGF R/Fc Chimera, CF (Cat# 344-ER) (human) (UniProt P00533); experiment: Multispot ECL; Fab 58.1 nM
[23] = molecular target: rHuman P-Cadherin/Fc Chimera, CF (Cat# 861-PC) (human) (UniProt P22223); experiment: Multispot ECL; Fab 930 nM
[24] = molecular target: rHuman EGF R/Fc Chimera, CF (Cat# 344-ER) (human) (UniProt P00533); experiment: Multispot ECL; Fab 930 nM
[25] = molecular target: rHuman P-Cadherin/Fc Chimera, CF (Cat# 861-PC) (human) (UniProt P22223); experiment: Multispot ECL; Fab 232.5 nM
[26] = molecular target: rHuman EGF R/Fc Chimera, CF (Cat# 344-ER) (human) (UniProt P00533); experiment: Multispot ECL; Fab 232.5 nM
[27] = molecular target: rHuman P-Cadherin/Fc Chimera, CF (Cat# 861-PC) (human) (UniProt P22223); experiment: Multispot ECL; Fab 14.5 nM
[28] = molecular target: rHuman EGF R/Fc Chimera, CF (Cat# 344-ER) (human) (UniProt P00533); experiment: Multispot ECL; Fab 14.5 nM
[29] = molecular target: rHuman IGF-1 sR, (IGF-1 sR), CF (Cat# 391-GR) (human) (UniProt P08069); experiment: Multispot ECL; Fab 9.1 nM
[30] = molecular target: rHuman P-Cadherin/Fc Chimera, CF (Cat# 861-PC) (human) (UniProt P22223); experiment: Multispot ECL; Fab 9.1 nM
[31] = molecular target: rHuman Erythropoietin R/Fc Chimera, CF (Cat# 963-ER) (human) (UniProt P19235); experiment: Multispot ECL; Fab 9.1 nM
rHuman Erythropoietin R/Fc Chimera, CF (Cat# 963-ER) (human), sequence (P19235 25-250, change not shown): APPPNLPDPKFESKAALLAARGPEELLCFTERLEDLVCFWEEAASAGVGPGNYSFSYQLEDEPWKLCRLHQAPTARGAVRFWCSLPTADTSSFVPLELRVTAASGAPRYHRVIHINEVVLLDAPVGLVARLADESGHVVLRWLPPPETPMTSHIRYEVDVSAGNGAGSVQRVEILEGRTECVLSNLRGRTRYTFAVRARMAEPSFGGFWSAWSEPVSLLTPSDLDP

[32] = molecular target: rHuman Notch-1/Fc Chimera, CF (Cat# 3647-TK) (human) (UniProt P46531); experiment: Multispot ECL; Fab 9.1 nM
[33] = molecular target: rHuman EGF R/Fc Chimera, CF (Cat# 344-ER) (human) (UniProt P00533); experiment: Multispot ECL; Fab 9.1 nM
[34] = molecular target: rHuman ErbB2/Fc Chimera, CF (Cat# 1129-ER) (human) (UniProt P04626); experiment: Multispot ECL; Fab 9.1 nM
[35] = molecular target: rHuman HGF R/c-MET/Fc Chimera, CF (Cat# 358-MT/CF) (human) (UniProt P08581); experiment: Multispot ECL; Fab 9.1 nM
[36] = molecular target: rHuman IGF-1 sR, (IGF-1 sR), CF (Cat# 391-GR) (human) (UniProt P08069); experiment: Multispot ECL; Fab 580 nM
[37] = molecular target: rHuman P-Cadherin/Fc Chimera, CF (Cat# 861-PC) (human) (UniProt P22223); experiment: Multispot ECL; Fab 580 nM
[38] = molecular target: rHuman Erythropoietin R/Fc Chimera, CF (Cat# 963-ER) (human) (UniProt P19235); experiment: Multispot ECL; Fab 580 nM
[39] = molecular target: rHuman Notch-1/Fc Chimera, CF (Cat# 3647-TK) (human) (UniProt P46531); experiment: Multispot ECL; Fab 580 nM
[40] = molecular target: rHuman EGF R/Fc Chimera, CF (Cat# 344-ER) (human) (UniProt P00533); experiment: Multispot ECL; Fab 580 nM
[41] = molecular target: rHuman ErbB2/Fc Chimera, CF (Cat# 1129-ER) (human) (UniProt P04626); experiment: Multispot ECL; Fab 580 nM
[42] = molecular target: rHuman HGF R/c-MET/Fc Chimera, CF (Cat# 358-MT/CF) (human) (UniProt P08581); experiment: Multispot ECL; Fab 580 nM
[43] = molecular target: rHuman IGF-1 sR, (IGF-1 sR), CF (Cat# 391-GR) (human) (UniProt P08069); experiment: Multispot ECL; Fab 36.3 nM
[44] = molecular target: rHuman P-Cadherin/Fc Chimera, CF (Cat# 861-PC) (human) (UniProt P22223); experiment: Multispot ECL; Fab 36.3 nM
[45] = molecular target: rHuman Erythropoietin R/Fc Chimera, CF (Cat# 963-ER) (human) (UniProt P19235); experiment: Multispot ECL; Fab 36.3 nM
[46] = molecular target: rHuman Notch-1/Fc Chimera, CF (Cat# 3647-TK) (human) (UniProt P46531); experiment: Multispot ECL; Fab 36.3 nM
[47] = molecular target: rHuman EGF R/Fc Chimera, CF (Cat# 344-ER) (human) (UniProt P00533); experiment: Multispot ECL; Fab 36.3 nM
[48] = molecular target: rHuman ErbB2/Fc Chimera, CF (Cat# 1129-ER) (human) (UniProt P04626); experiment: Multispot ECL; Fab 36.3 nM
[49] = molecular target: rHuman HGF R/c-MET/Fc Chimera, CF (Cat# 358-MT/CF) (human) (UniProt P08581); experiment: Multispot ECL; Fab 36.3 nM
[50] = molecular target: rHuman IGF-1 sR, (IGF-1 sR), CF (Cat# 391-GR) (human) (UniProt P08069); experiment: Multispot ECL; Fab 145 nM
[51] = molecular target: rHuman P-Cadherin/Fc Chimera, CF (Cat# 861-PC) (human) (UniProt P22223); experiment: Multispot ECL; Fab 145 nM
[52] = molecular target: rHuman Erythropoietin R/Fc Chimera, CF (Cat# 963-ER) (human) (UniProt P19235); experiment: Multispot ECL; Fab 145 nM
[53] = molecular target: rHuman Notch-1/Fc Chimera, CF (Cat# 3647-TK) (human) (UniProt P46531); experiment: Multispot ECL; Fab 145 nM
[54] = molecular target: rHuman EGF R/Fc Chimera, CF (Cat# 344-ER) (human) (UniProt P00533); experiment: Multispot ECL; Fab 145 nM
[55] = molecular target: rHuman HGF R/c-MET/Fc Chimera, CF (Cat# 358-MT/CF) (human) (UniProt P08581); experiment: Multispot ECL; Fab 145 nM

- ECL signal [1]: 626
- ECL signal [2]: 664
- ECL signal [3]: 949
- ECL signal [4]: 680
- ECL signal [5]: 541
- ECL signal [6]: 369
- ECL signal [7]: 424
- ECL signal [8]: 469
- ECL signal [9]: 480
- ECL signal [10]: 384
- ECL signal [11]: 3530
- ECL signal [12]: 4070
- ECL signal [13]: 5400
- ECL signal [14]: 4380
- ECL signal [15]: 3950
- ECL signal [16]: 1320
- ECL signal [17]: 1370
- ECL signal [18]: 1820
- ECL signal [19]: 1490
- ECL signal [20]: 1360
Substance: Fab VH1-46_IGHD2-15*01_IGHJ2*01 & L12_IGKJ1*01

- ECL signal [21]: 478
- ECL signal [22]: 444
- ECL signal [23]: 2440
- ECL signal [24]: 3110
- ECL signal [25]: 655
- ECL signal [26]: 803
- ECL signal [27]: 277
- ECL signal [28]: 357
Substance: Fab VH1-46_IGHD6-13*01_IGHJ4*01 & O1_IGKJ1*01

- ECL signal [29]: 788
- ECL signal [30]: 589
- ECL signal [31]: 697
- ECL signal [32]: 754
- ECL signal [33]: 800
- ECL signal [34]: 987
- ECL signal [35]: 894
- ECL signal [36]: 1360
- ECL signal [37]: 2240
- ECL signal [38]: 1580
- ECL signal [39]: 1580
- ECL signal [40]: 1630
- ECL signal [41]: 1710
- ECL signal [42]: 2340
- ECL signal [43]: 799
- ECL signal [44]: 684
- ECL signal [45]: 722
- ECL signal [46]: 633
- ECL signal [47]: 831
- ECL signal [48]: 1030
- ECL signal [49]: 1060
- ECL signal [50]: 794
- ECL signal [51]: 850
- ECL signal [52]: 845
- ECL signal [53]: 860
- ECL signal [54]: 856
- ECL signal [55]: 1170
Substance: Fab VH4-34_IGHD7-27*01_IGHJ4*01 & V1-4_IGLJ4*01
